According to article PMC5354776:

Key:
[1] = molecular target: CLIP-170 (cytoplasmic linker protein 170) (UniProt P30622); experiment: HA immunoprecipitation, CLIP-170 immunoblot; details: reference: HA-EB1 wild type; sites S40,T154,T206
p150glued = p150glued (UniProt Q14203); experiment: HA immunoprecipitation, p150glued immunoblot; details: reference: HA-EB1 wild type; sites S40,T154,T206

- binding against the reference [1]: weaker
- binding against the reference (p150glued): weaker
Substance: EB1 (end-binding protein 1) (from UniProt Q15691) HA-EB1 3A (S40A/T154A/T206A)
